Patent publication US20030153066A1 (University of California, published 2003)

Target: HIV-1 Gag Pr55 (wild-type) (HIV-1, UniProt P03348 1-512, N-terminal myristoylation (reactions with MCoA))
Test: cell-based or functional assay

B1: WGHP68-Tr1 (other)
chain: MADRLTRIAIVSEDKCKPKKCRQECKKSCPVVKTGKLCIEVSPVAKLAFISEELCIGCGICVKKCPFDAIEIINLPKDLEKDTTHRYGPNTFKLHRLPVPRPGQVLGLVGTNGIGKSTALKVLAGKLKPNLGRFKNPPDWQEILTYFRGSELQNYFTRILEDNLKAIIKPQYVDHIPKAVQGNVGQVLEQKDERDMKNELCVDLELNQVIDRNVGDLSGGELQRFAIAVVAVQSAEIYMFDEPSSYLDVKQRLKAARVIRSLLRSNSYVIVVEHDLSVLDYLSDFICCLYGKPGAYGVVTLPFSVREGINIFLAGFVPTENLRFRDESLTFKIAETQESAEEVATYQRYKYPTMSKTQGNFKLSVVEGEFTDSQIVVM
amount of HIV-1 Gag protein in the medium of co-transfected Cos-1 cells (virion production): 4.7 fold
